According to patent publication US20220267475A1:

Assays:
[1] = target: CD47-expressing CHO-K1 cells (UniProt Q08722); assay: flow cytometry
[2] = target: TIGIT-expressing CHO-K1 cells (UniProt Q495A1); assay: flow cytometry
TIGIT-expressing CHO-K1 cells, sequence (Q495A1 22-244): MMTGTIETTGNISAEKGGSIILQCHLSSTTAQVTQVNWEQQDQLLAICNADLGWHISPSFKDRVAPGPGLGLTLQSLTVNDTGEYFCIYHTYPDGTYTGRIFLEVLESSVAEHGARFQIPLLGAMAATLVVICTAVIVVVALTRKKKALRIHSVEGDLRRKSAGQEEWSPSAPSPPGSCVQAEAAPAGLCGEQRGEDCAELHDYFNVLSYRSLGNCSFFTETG

CD47-expressing CHO-K1 cells, sequence (Q08722 19-323): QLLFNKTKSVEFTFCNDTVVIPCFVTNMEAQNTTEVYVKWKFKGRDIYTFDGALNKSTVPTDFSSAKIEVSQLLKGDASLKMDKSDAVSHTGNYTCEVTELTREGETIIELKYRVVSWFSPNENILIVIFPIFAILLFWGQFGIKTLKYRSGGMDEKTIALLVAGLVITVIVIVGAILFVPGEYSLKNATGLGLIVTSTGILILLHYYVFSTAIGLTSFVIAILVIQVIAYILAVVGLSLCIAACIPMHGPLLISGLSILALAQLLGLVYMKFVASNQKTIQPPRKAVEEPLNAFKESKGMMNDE

EC50 [1]: 0.992 pM
EC50 [2]: 15 pM
Substance: Human IgG
